# Source: patent US20260274985A1 (MYTHIC THERAPEUTICS, published 2026)
# Where a chain is given by its changes, count along the chain named.
# B1: MYT11636 (antibody, V domains shown)
# VH: QVQLVQSGAEVKKPGASVKVSCKASHYTFTTAGMQWVRQAPGQGLEWMGWINTHSGVPKYAEDFKGRVTISADTSTSTAYLQLSSLKSEDTAVYYCARSGFGSSYWYFDVWGQGTLVTVSS
# VL: DIQMTQSPSSLSASVGDRVTITCKASQDVSTAVAWYQQKPGKAPKLLIYSASYRYTGVPSRFSGSGSGTDFTLTISSLQPEDFAVYYCQQHYITPLTFGQGTKLEIK
# notes: IgG from supernatant; His at HCV position 26; also called datopotamab variant H1 01
# B2: MYT11653 (antibody, V domains shown)
# VH: B1 VH with H26G, V57H
# VL: B1 VL
# notes: IgG from supernatant; His at HCV position 57; also called datopotamab variant H2 08
# B3: MYT11664 (antibody, V domains shown)
# VH: B1 VH with H26G, R98H
# VL: B1 VL
# notes: IgG from supernatant; His at HCV position 98; also called datopotamab variant H3 02
# B4: MYT11654 (antibody, V domains shown)
# VH: B1 VH with H26G, P58H
# VL: B1 VL
# notes: IgG from supernatant; His at HCV position 58; also called datopotamab variant H2 09
# B5: MYT11667 (antibody, V domains shown)
# VH: B1 VH with H26G, F101H
# VL: B1 VL
# notes: IgG from supernatant; His at HCV position 101; also called datopotamab variant H3 05
# B6: MYT11656 (antibody, V domains shown)
# VH: B1 VH with H26G, Y60H
# VL: B1 VL
# notes: IgG from supernatant; His at HCV position 60; also called datopotamab variant H2 11
# B7: MYT11675 (antibody, V domains shown)
# VH: B1 VH with H26G, D109H
# VL: B1 VL
# B8: MYT11651 (antibody, V domains shown)
# VH: B1 VH with H26G, S55H
# VL: B1 VL
# notes: IgG from supernatant; His at HCV position 55; also called datopotamab variant H2 06
# B9: MYT11674 (antibody, V domains shown)
# VH: B1 VH with H26G, F108H
# VL: B1 VL
# notes: IgG from supernatant; also called datopotamab variant H3 12
# B10: MYT11649 (antibody, V domains shown)
# VH: B1 VH with H26G, T53H
# VL: B1 VL
# notes: IgG from supernatant; His at HCV position 53; also called datopotamab variant H2 04
# B11: MYT11659 (antibody, V domains shown)
# VH: B1 VH with H26G, D63H
# VL: B1 VL
# notes: IgG from supernatant; His at HCV position 63; also called datopotamab variant H2 14
# B12: MYT11657 (antibody, V domains shown)
# VH: B1 VH with H26G, A61H
# VL: B1 VL
# notes: IgG from supernatant; His at HCV position 61; also called datopotamab variant H2 12
# B13: MYT11650 (antibody, V domains shown)
# VH: B1 VH with H26G, H54A
# VL: B1 VL
# notes: IgG from supernatant; Ala at HCV position 54 (starting residue His); also called datopotamab variant H2 05
# B14: MYT11641 (antibody, V domains shown)
# VH: B1 VH with H26G, T31H
# VL: B1 VL
# notes: IgG from supernatant; His at HCV position 31; also called datopotamab variant H1 06
# B15: MYT11642 (antibody, V domains shown)
# VH: B1 VH with H26G, A32H
# VL: B1 VL
# notes: IgG from supernatant; His at HCV position 32; also called datopotamab variant H1 07
# B16: MYT11638 (antibody, V domains shown)
# VH: B1 VH with H26G, T28H
# VL: B1 VL
# notes: IgG from supernatant; His at HCV position 28; also called datopotamab variant H1 03
# B17: MYT11661 (antibody, V domains shown)
# VH: B1 VH with H26G, K65H
# VL: B1 VL
# notes: IgG from supernatant; His at HCV position 65; also called datopotamab variant H2 16
# B18: MYT11640 (antibody, V domains shown)
# VH: B1 VH with H26G, T30H
# VL: B1 VL
# notes: IgG from supernatant; His at HCV position 30; also called datopotamab variant H1 05
# B19: MYT11652 (antibody, V domains shown)
# VH: B1 VH with H26G, G56H
# VL: B1 VL
# notes: IgG from supernatant; His at HCV position 56; also called datopotamab variant H2 07
# B20: MYT11655 (antibody, V domains shown)
# VH: B1 VH with H26G, K59H
# VL: B1 VL
# notes: IgG from supernatant; His at HCV position 59; also called datopotamab variant H2 10
# B21: MYT11639 (antibody, V domains shown)
# VH: B1 VH with H26G, F29H
# VL: B1 VL
# notes: IgG from supernatant; His at HCV position 29; also called datopotamab variant H1 04
# B22: MYT11646 (antibody, V domains shown)
# VH: B1 VH with H26G, W50H
# VL: B1 VL
# notes: IgG from supernatant; His at HCV position 50; also called datopotamab variant H2 01
# B23: MYT11648 (antibody, V domains shown)
# VH: B1 VH with H26G, N52H
# VL: B1 VL
# notes: IgG from supernatant; His at HCV position 52; also called datopotamab variant H2 03
# B24: MYT11662 (antibody, V domains shown)
# VH: B1 VH with H26G, G66H
# VL: B1 VL
# notes: IgG from supernatant; His at HCV position 66; also called datopotamab variant H2 17
# B25: MYT11660 (antibody, V domains shown)
# VH: B1 VH with H26G, F64H
# VL: B1 VL
# notes: IgG from supernatant; His at HCV position 64; also called datopotamab variant H2 15
# B26: MYT11647 (antibody, V domains shown)
# VH: B1 VH with H26G, I51H
# VL: B1 VL
# notes: IgG from supernatant; His at HCV position 51; also called datopotamab variant H2 02
# B27: MYT11637 (antibody, V domains shown)
# VH: B1 VH with H26G, Y27H
# VL: B1 VL
# notes: IgG from supernatant; His at HCV position 27; also called datopotamab variant H1 02
# B28: MYT11644 (antibody, V domains shown)
# VH: B1 VH with H26G, M34H
# VL: B1 VL
# notes: IgG from supernatant; His at HCV position 34; also called datopotamab variant H1 09
# B29: MYT11673 (antibody, V domains shown)
# VH: B1 VH with H26G, Y107H
# VL: B1 VL
# notes: IgG from supernatant; also called datopotamab variant H3 11
# B30: MYT11658 (antibody, V domains shown)
# VH: B1 VH with H26G, E62H
# VL: B1 VL
# notes: IgG from supernatant; His at HCV position 62; also called datopotamab variant H2 13
# B31: MYT12454 (hu7E6SVG variant, LCV substitutions at 59, 60, 93) (antibody, V domains shown)
# VH: QVQLQESGPGLVKPSETLSLTCTVSGGSISSYGVHWIRQPPGKGLEWIGVIWTSGVTDYNSALMGRVTISVDTSKNQFSLKLSSVTAADTAVYYCARDGDYDRYTMDYWGQGTLVTVSS
# VL: DIVMTQSPDSLAVSLGERATINCRASKSVSTSGYSYMHWYQQKPGQPPKLLIYLASNLHHGVPDRFSGSGSGTDFTLTISSLQAEDVAVYYCHHSRELPYTFGQGTKLEIK
# notes: Full IgG in Expi293 supernatant
# B32: MYT12455 (hu7E6SVG variant, LCV substitutions at 59, 60, 94 (Ala at 94)) (antibody, V domains shown)
# VH: B31 VH
# VL: B31 VL with H93Q, H94A
# notes: as for B31
# B33: MYT12472 (hu7E6SVG variant, LCV substitutions at 93, 97, 101) (antibody, V domains shown)
# VH: B31 VH
# VL: B31 VL with H59E, H60S, E97H, T101H
# notes: as for B31
# B34: MYT12469 (hu7E6SVG variant, LCV substitutions at 60, 97, 101) (antibody, V domains shown)
# VH: B31 VH
# VL: B31 VL with H59E, H93Q, E97H, T101H
# notes: as for B31
# B35: MYT12466 (hu7E6SVG variant, LCV substitutions at 60, 93, 101) (antibody, V domains shown)
# VH: B31 VH
# VL: B31 VL with H59E, T101H
# notes: as for B31
# B36: MYT13176 (antibody, V domains shown)
# VH: QVQLQQSGSELKKPGASVKVSCKASGYTFTNHGMNWVKQAPGQGLKWMGWINTYTGEPTYTDDFKGRFAFSLDTSVSTAYLQISSLKADDTAVYFCARGGFGSSYWYFDVWGQGSLVTVSS
# VL: B1 VL with M4L, T20S, T31I, A51H, S60D, Q100A, L104V
# notes: Sacituzumab HC-LC pairing variant; IgG
# B37: MYT13165 (antibody, V domains shown)
# VH: B36 VH with H32Y, F64H
# VL: B1 VL with M4L, T20S, S30H, T31I, S60D, Q100A, L104V
# notes: as for B36
# B38: MYT13162 (antibody, V domains shown)
# VH: B36 VH with H32Y, Y60H
# VL: B1 VL with M4L, T20S, S30H, T31I, S60D, Q100A, L104V
# notes: as for B36
# B39: MYT13164 (antibody, V domains shown)
# VH: B36 VH with H32Y, D63H
# VL: B1 VL with M4L, T20S, S30H, T31I, S60D, Q100A, L104V
# notes: as for B36
# B40: MYT13163 (antibody, V domains shown)
# VH: B36 VH with H32Y, D62H
# VL: B1 VL with M4L, T20S, S30H, T31I, S60D, Q100A, L104V
# notes: as for B36
# B41: MYT13161 (antibody, V domains shown)
# VH: B36 VH with H32Y, G33H
# VL: B1 VL with M4L, T20S, S30H, T31I, S60D, Q100A, L104V
# notes: as for B36
# Target: T1, Human TROP2 Protein, His Tag (human, UniProt P09758 27-274)
# T1 construct: Bought protein; also called TACSTD2; not shown: His tag
# T1 sequence (looked up): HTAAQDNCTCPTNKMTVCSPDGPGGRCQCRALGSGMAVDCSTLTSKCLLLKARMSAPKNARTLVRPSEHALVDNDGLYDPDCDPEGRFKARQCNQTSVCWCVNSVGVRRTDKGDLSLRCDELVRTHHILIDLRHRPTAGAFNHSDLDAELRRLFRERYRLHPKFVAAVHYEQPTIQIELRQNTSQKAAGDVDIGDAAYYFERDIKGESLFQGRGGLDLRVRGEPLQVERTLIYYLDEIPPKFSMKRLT
# Experiment: BLI (Octet)
row,Binder,binding result
1,B1,binds
2,B2,binds
3,B3,binds
4,B4,binds
5,B5,binds
6,B6,binds
7,B7,binds
8,B8,binds
9,B9,binds
10,B10,binds
11,B11,binds
12,B12,binds
13,B13,binds
14,B14,binds
15,B15,binds
16,B16,binds
17,B17,binds
18,B18,binds
19,B19,binds
20,B20,binds
21,B21,binds
22,B22,binds
23,B23,binds
24,B24,binds
25,B25,binds
26,B26,binds
27,B27,binds
28,B28,binds
29,B29,binds
30,B30,binds

# Target: T2, Human TROP2 Protein, His Tag (Acro Biosystems) (human, UniProt P09758 27-274)
# T2 construct: Bought protein; also called TACSTD2; not shown: His tag
# T2 sequence: T1 sequence (looked up)
# Experiment: BLI (Octet)
row,Binder,binding result
1,B31,binds
2,B32,binds
3,B33,binds
4,B34,binds
5,B35,binds

# Target: T3, Human TROP2 Protein, His Tag (Acro Biosystems) (human, UniProt P09758 27-274)
# T3 construct: Soluble analyte of the Octet assay; also called TACSTD2; not shown: His tag
# T3 sequence (looked up): T1 sequence (looked up)
# Experiment: BLI (Octet)
row,Binder,binding result
1,B36,binds
2,B37,binds
3,B38,binds
4,B39,binds
5,B40,binds
6,B41,binds
